Data published in the supplement of paper PMC7877785.
± gives the uncertainty stated by the source.

Assay: self-splicing fitness, log relative to wild type (ln ratio); higher = more splicing; Tetrahymena group I intron in knt gene, E. coli kanamycin selection, DiMSum; sequences stand for … in CUCUCU…GGAGGGAAAAGUUAUCAGGCAUGCACCUGGUAGCUAGUCUUUAAACCAAUAGAUUGCAUCGGUUUAAAAGGCAAGACCGUCAAAUUGCGGGAAAGGGGUCAACAGCCGUUCAGUACCAAGUCUCAGGGGAAACUUUGAGAUGGCCUUGCAAAGGGUAUGGUAAUAAGCUGACGGACAUGGUCCUAACCACGCAGCCAAGUCCUAAGUCAACAGAUCUUCUGUUGAUAUGGAUGCAGUUCACAGACUAAAUGUCGGUCGGGGAAGAUGUAUUCUUCUCAUAAGAUAUAGUCGGACCUCUCCUUAAUGGGAGCUAGCGGAUGAAGUGAUGCAACACUGGAGCCGCUGGGAACUAAUUUGUAUGCGAAAGUAUAUUGAUUAGUUUUGGAGUACUCGUGGUCG
Procedure, shortened: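 Colonies from six replicate transformations of E. coli BL21(DE3) were pooled and amplicon-sequenced on an Illumina HiSeq 2500. The library placed an intron with all eight P1ex-region nucleotides randomised inside the knt kanamycin-resistance gene on pET-22b(+), and cells grew overnight at 37°C or 30°C on LB agar with or without 25 μg/mL kanamycin (plus 100 μg/mL carbenicillin, 50 μM IPTG, 0.2% rhamnose). Fitness is the DiMSum error-weighted combination of wild-type-normalised replicate fold changes, kanamycin versus none.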

Sequence | self-splicing fitness (ln) (30 °C) | self-splicing fitness (ln) (37 °C)
GCAUAGCAAUAUUACGAUGU | -2.82 ± 0.13 | -2.31 ± 0.17
GCAUAGCAAUAUUACGAUUA | -1.47 ± 0.18 | 0.017 ± 0.15
GCAUAGCAAUAUUACGCAAU | -2.37 ± 0.11 | -1.77 ± 0.12
GCAUAGCAAUAUUACGCAGU | -4.08 ± 0.17 | -1.81 ± 0.12
GCAUAGCAAUAUUACGCCGA |  | -2.37 ± 0.25
GCAUAGCAAUAUUACGCCGU | -3.07 ± 0.15 | -1.83 ± 0.14
GCAUAGCAAUAUUACGCCUA | -1.83 ± 0.13 | -1.39 ± 0.12
GCAUAGCAAUAUUACGCGAC | -2.79 ± 0.16 | 0.0921 ± 0.13
GCAUAGCAAUAUUACGCGUG | -3.46 ± 0.2 | -2.64 ± 0.28
GCAUAGCAAUAUUACGCUUG | -3.29 ± 0.21 | -2.64 ± 0.31
GCAUAGCAAUAUUACGGAGA | -4.01 ± 0.37 | -3.02 ± 0.33
GCAUAGCAAUAUUACGGAGU | -3.52 ± 0.14 | -1.86 ± 0.11
GCAUAGCAAUAUUACGGCCC | -0.542 ± 0.32 | -0.431 ± 0.37
GCAUAGCAAUAUUACGGGUC | -3.17 ± 0.14 | -2.71 ± 0.17
GCAUAGCAAUAUUACGGUGU | -4.14 ± 0.23 | -2.47 ± 0.2
GCAUAGCAAUAUUACGUAAA | -2.43 ± 0.074 | -1.05 ± 0.08
GCAUAGCAAUAUUACGUAUU | -3.09 ± 0.16 | -2.04 ± 0.17
GCAUAGCAAUAUUACGUCCU | -1.16 ± 0.12 | -0.534 ± 0.15
GCAUAGCAAUAUUACGUCUA | -0.451 ± 0.14 | -0.993 ± 0.13
GCAUAGCAAUAUUACGUGCG | -2.26 ± 0.1 | -1.91 ± 0.14
GCAUAGCAAUAUUACGUUAU | -2.61 ± 0.16 | -3.08 ± 0.27
GCCAAGCAAUAUUACGAAGC | -2.7 ± 0.12 | -2.51 ± 0.17
GCCAAGCAAUAUUACGACAU | -2.357 ± 0.015 | -1.37 ± 0.033
GCCAAGCAAUAUUACGACGG | -3.8 ± 0.23 | -2.55 ± 0.21
GCCAAGCAAUAUUACGAUAG | -3.28 ± 0.36 | -2.43 ± 0.25

Sequence | self-splicing fitness (ln) (30 °C) | self-splicing fitness (ln) (37 °C)
GCCAAGCAAUAUUACGAUCU | -1.94 ± 0.13 | -0.903 ± 0.098
GCCAAGCAAUAUUACGAUUC | -0.96 ± 0.062 | -0.482 ± 0.082
GCCAAGCAAUAUUACGCACU | -0.915 ± 0.077 | -0.196 ± 0.097
GCCAAGCAAUAUUACGCAUU | -1.35 ± 0.072 | -0.715 ± 0.081
GCCAAGCAAUAUUACGCCGG | -2.18 ± 0.26 | -2.13 ± 0.4
GCCAAGCAAUAUUACGCGCG | -1.87 ± 0.13 | -0.932 ± 0.14
GCCAAGCAAUAUUACGCGGC | -3.04 ± 0.22 | -3.03 ± 0.43
GCCAAGCAAUAUUACGCGUU | -0.424 ± 0.059 | 0.358 ± 0.079
GCCAAGCAAUAUUACGGAAG | -3.55 ± 0.34 | -2.57 ± 0.33
GCCAAGCAAUAUUACGGAAU | -1.8 ± 0.15 | -0.618 ± 0.15
GCCAAGCAAUAUUACGGACG | -1.6 ± 0.14 | 0.0859 ± 0.18
GCCAAGCAAUAUUACGGCGC | -1.36 ± 0.11 | -0.697 ± 0.15
GCCAAGCAAUAUUACGGGAU | -0.936 ± 0.075 | -0.693 ± 0.099
GCCAAGCAAUAUUACGGGGC | -3.69 ± 0.22 | -2.85 ± 0.27
GCCAAGCAAUAUUACGGGUA | -0.958 ± 0.052 | -0.102 ± 0.062
GCCAAGCAAUAUUACGGUAC | -2.01 ± 0.13 | -0.941 ± 0.13
GCCAAGCAAUAUUACGGUAG | -3.67 ± 0.22 | -2.82 ± 0.18
GCCAAGCAAUAUUACGUACU | -1.15 ± 0.098 | -0.739 ± 0.12
GCCAAGCAAUAUUACGUCCC | -0.579 ± 0.15 | -0.607 ± 0.3
GCCAAGCAAUAUUACGUCCG | -2.19 ± 0.33 | -1.6 ± 0.32
GCCAAGCAAUAUUACGUCCU | -2.11 ± 0.11 | -0.408 ± 0.12
GCCAAGCAAUAUUACGUGAA | -0.726 ± 0.068 | 0.0387 ± 0.09
GCCAAGCAAUAUUACGUGGG | -2.97 ± 0.1 | -3.25 ± 0.13
GCCAAGCAAUAUUACGUGUU | -0.889 ± 0.049 | -0.309 ± 0.06
GCCCAGCAAUAUUACGAGCC | -3.1 ± 0.24 | -0.756 ± 0.15

Sequence | self-splicing fitness (ln) (30 °C) | self-splicing fitness (ln) (37 °C)
GCCCAGCAAUAUUACGAUAA | -2.26 ± 0.11 | -1.57 ± 0.13
GCCCAGCAAUAUUACGCAAC | -2.19 ± 0.091 | -0.000822 ± 0.095
GCCCAGCAAUAUUACGCAUG | -3.92 ± 0.33 | -2.24 ± 0.38
GCCCAGCAAUAUUACGCUAC | -3.18 ± 0.21 | -2.72 ± 0.29
GCCCAGCAAUAUUACGCUAG | -3.11 ± 0.18 | -2.34 ± 0.17
GCCCAGCAAUAUUACGCUCC | -0.416 ± 0.11 | -0.675 ± 0.12
GCCCAGCAAUAUUACGGACU | -2.51 ± 0.16 | -0.873 ± 0.21
GCCCAGCAAUAUUACGGCAA | -2.55 ± 0.19 | -0.273 ± 0.11
GCCCAGCAAUAUUACGGCCC | -1.09 ± 0.18 | -0.738 ± 0.32
GCCCAGCAAUAUUACGGCGA | -0.6 ± 0.082 | -0.337 ± 0.1
GCCCAGCAAUAUUACGGCUG | -4.14 ± 0.2 | -2.22 ± 0.15
GCCCAGCAAUAUUACGGGGA | -0.813 ± 0.082 | -0.181 ± 0.099
GCCCAGCAAUAUUACGUAAG | -1.15 ± 0.072 | -0.871 ± 0.1
GCCCAGCAAUAUUACGUACU | -0.0223 ± 0.1 | -0.765 ± 0.15
GCCCAGCAAUAUUACGUAGC | -0.413 ± 0.07 | -0.216 ± 0.079
GCCCAGCAAUAUUACGUCGU | -0.113 ± 0.066 | 0.0609 ± 0.072
GCCCAGCAAUAUUACGUGGC | -3.51 ± 0.22 | -1.39 ± 0.19
GCCCAGCAAUAUUACGUGGU | -4 ± 0.18 | -1.9 ± 0.14
GCCCAGCAAUAUUACGUUAC | -2.2 ± 0.083 | -0.962 ± 0.087
GCCGAGCAAUAUUACGAAAC | -2.15 ± 0.22 | -1.13 ± 0.17
GCCGAGCAAUAUUACGAGCU | -2.84 ± 0.26 | -3.15 ± 0.33
GCCGAGCAAUAUUACGAUAU | -2.51 ± 0.12 | -1.46 ± 0.11
GCCGAGCAAUAUUACGAUGC | -0.994 ± 0.088 | -0.352 ± 0.096
GCCGAGCAAUAUUACGCAGG | -3.43 ± 0.25 | -4.04 ± 0.42
GCCGAGCAAUAUUACGCCAC | -2.11 ± 0.34 | 

Sequence | self-splicing fitness (ln) (30 °C) | self-splicing fitness (ln) (37 °C)
GCCGAGCAAUAUUACGCCCC | -1.58 ± 0.37 | 
GCCGAGCAAUAUUACGCGCG | -2.53 ± 0.25 | 
GCCGAGCAAUAUUACGCUCG | -2.94 ± 0.27 | -2.02 ± 0.26
GCCGAGCAAUAUUACGCUUA | -1.21 ± 0.072 | -0.233 ± 0.089
GCCGAGCAAUAUUACGGAAU | -1.1 ± 0.09 | -0.698 ± 0.11
GCCGAGCAAUAUUACGGAGU | -2.42 ± 0.18 | -1.56 ± 0.12
GCCGAGCAAUAUUACGGAUC | -0.703 ± 0.074 | -0.376 ± 0.11
GCCGAGCAAUAUUACGGUCG | -3.63 ± 0.21 | 
GCCGAGCAAUAUUACGGUCU | -2.23 ± 0.13 | -2.26 ± 0.24
GCCGAGCAAUAUUACGGUUA | -0.775 ± 0.071 | -0.0707 ± 0.07
GCCGAGCAAUAUUACGGUUU | -2.38 ± 0.098 | -0.815 ± 0.095
GCCGAGCAAUAUUACGUAAA | -2.41 ± 0.14 | -1.36 ± 0.17
GCCGAGCAAUAUUACGUACU | -2.15 ± 0.17 | -1.23 ± 0.18
GCCGAGCAAUAUUACGUCAA |  | -2.36 ± 0.33
GCCGAGCAAUAUUACGUCAC |  | -1.57 ± 0.24
GCCGAGCAAUAUUACGUCCU | -2.96 ± 0.14 | -0.795 ± 0.13
GCCUAGCAAUAUUACGAAAG | -4.21 ± 0.24 | -1.07 ± 0.18
GCCUAGCAAUAUUACGAAGU | -0.618 ± 0.1 | -0.808 ± 0.12
GCCUAGCAAUAUUACGAGAU | -1.88 ± 0.12 | -0.45 ± 0.11
GCCUAGCAAUAUUACGAGCG | -1.38 ± 0.1 | 0.0723 ± 0.13
GCCUAGCAAUAUUACGAGGA | -0.444 ± 0.06 | -0.065 ± 0.067
GCCUAGCAAUAUUACGAGUA | -1.7 ± 0.093 | -1.88 ± 0.085
